Measured values: patent US20080008713A1

Biological target: mouse TNFR1 on L929 cells (mouse) (UniProt P25118)
Assay: cell-based or functional assay

Chain of mouse TNFR1 on L929 cells (mouse) (P25118 30-454): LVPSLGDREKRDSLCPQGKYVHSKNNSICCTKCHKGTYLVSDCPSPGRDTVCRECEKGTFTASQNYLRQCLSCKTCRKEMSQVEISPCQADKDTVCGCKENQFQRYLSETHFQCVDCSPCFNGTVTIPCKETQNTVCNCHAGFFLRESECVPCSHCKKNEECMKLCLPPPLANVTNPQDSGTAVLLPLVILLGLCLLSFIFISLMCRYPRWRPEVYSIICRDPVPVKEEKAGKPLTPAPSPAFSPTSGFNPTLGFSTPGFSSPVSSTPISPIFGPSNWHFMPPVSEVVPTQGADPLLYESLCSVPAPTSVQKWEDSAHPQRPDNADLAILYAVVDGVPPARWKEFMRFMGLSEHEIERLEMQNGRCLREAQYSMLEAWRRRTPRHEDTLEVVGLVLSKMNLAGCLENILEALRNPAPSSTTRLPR

Row | Substance | ND50 of induced cytotoxicity, modified L929 assay without TNF-α | ND50 of cell killing, modified L929 assay without TNF-α
1 | anti-TNFR1 antibody AF-425-PB (R&D Systems) | 100 pM | 
2 | anti-TNFR1 antibody MAB430 (R&D Systems) |  | 10 nM
